# T1: GUCY2C_ECD Peptide 27 (human)
# T1 peptide: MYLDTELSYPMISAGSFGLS
# T2: GUCY2C_ECD Peptide 80 (human)
# T2 peptide: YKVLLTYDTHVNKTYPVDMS
# T3: GUCY2C_ECD Peptide 3 (human)
# T3 peptide: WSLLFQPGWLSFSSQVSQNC
# T4: GUCY2C_ECD Peptide 74 (human)
# T4 peptide: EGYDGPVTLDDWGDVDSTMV
# T5: GUCY2C_ECD Peptide 73 (human)
# T5 peptide: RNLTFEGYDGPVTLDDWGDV
# T6: GUCY2C_ECD Peptide 32 (human)
# T6 peptide: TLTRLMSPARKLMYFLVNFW
# T7: GUCY2C_ECD Peptide 44 (human)
# T7 peptide: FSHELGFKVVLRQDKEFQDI
# T8: GUCY2C_ECD Peptide 43 (human)
# T8 peptide: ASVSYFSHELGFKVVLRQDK
# T9: GUCY2C_ECD Peptide 1 (human)
# T9 peptide: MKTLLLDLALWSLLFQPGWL
# T10: GUCY2C_ECD Peptide 15 (human)
# T10 peptide: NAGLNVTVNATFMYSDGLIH
# T11: GUCY2C_ECD Peptide 52 (human)
# T11 peptide: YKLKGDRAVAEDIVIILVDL
# T12: GUCY2C_ECD Peptide 12 (human)
# T12 peptide: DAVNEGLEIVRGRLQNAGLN
# T13: GUCY2C_ECD Peptide 39 (human)
# T13 peptide: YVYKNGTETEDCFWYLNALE
# T14: GUCY2C_ECD Peptide 49 (human)
# T14 peptide: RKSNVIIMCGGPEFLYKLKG
# T15: GUCY2C_ECD Peptide 7 (human)
# T15 peptide: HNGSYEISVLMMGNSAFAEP
# T16: GUCY2C_ECD Peptide 55 (human)
# T16 peptide: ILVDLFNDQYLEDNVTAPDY
# T17: GUCY2C_ECD Peptide 9 (human)
# T17 peptide: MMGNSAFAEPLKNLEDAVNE
# T18: GUCY2C_ECD Peptide 14 (human)
# T18 peptide: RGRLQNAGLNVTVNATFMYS
# T19: GUCY2C_ECD Peptide 41 (human)
# T19 peptide: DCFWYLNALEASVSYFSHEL
# T20: GUCY2C_ECD Peptide 78 (human)
# T20 peptide: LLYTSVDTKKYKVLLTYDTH
# T21: GUCY2C_ECD Peptide 38 (human)
# T21 peptide: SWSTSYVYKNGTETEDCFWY
# T22: GUCY2C_ECD Peptide 66 (human)
# T22 peptide: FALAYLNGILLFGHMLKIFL
# T23: GUCY2C_ECD Peptide 83 (human)
# T23 peptide: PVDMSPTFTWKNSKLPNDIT
# T24: GUCY2C_ECD Peptide 69 (human)
# T24 peptide: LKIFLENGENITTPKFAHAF
# T25: GUCY2C_ECD Peptide 11 (human)
# T25 peptide: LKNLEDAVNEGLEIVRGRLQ
# T26: GUCY2C_ECD Peptide 13 (human)
# T26 peptide: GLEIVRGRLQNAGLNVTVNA
# T27: GUCY2C_ECD Peptide 61 (human)
# T27 peptide: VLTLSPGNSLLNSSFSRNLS
# T28: GUCY2C_ECD Peptide 19 (human)
# T28 construct: also called GUCY2c peptide 19; GUCY2c-ECD peptide number 19
# T28 peptide: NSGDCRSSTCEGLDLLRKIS
# T29: GUCY2C_ECD Peptide 24 (human)
# T29 peptide: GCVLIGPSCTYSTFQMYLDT
# T30: GUCY2C_ECD Peptide 70 (human)
# T30 peptide: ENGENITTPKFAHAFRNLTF
# T31: GUCY2C_ECD Peptide 30 (human)
# T31 peptide: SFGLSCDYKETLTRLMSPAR
# T32: GUCY2C_ECD Peptide 85 (human)
# T32 peptide: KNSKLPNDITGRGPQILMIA
# T33: GUCY2C_ECD Peptide 53 (human)
# T33 peptide: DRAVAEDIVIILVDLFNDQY
# T34: GUCY2C_ECD Peptide 47 (human)
# T34 peptide: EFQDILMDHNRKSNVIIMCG
# T35: GUCY2C_ECD Peptide 20 (human)
# T35 peptide: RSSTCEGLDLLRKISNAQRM
# T36: GUCY2C_ECD Peptide 58 (human)
# T36 peptide: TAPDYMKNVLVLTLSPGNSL
# Assays:
# Experiment in all cases: peptide DELFIA ELISA;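 also: epitope mapping using overlapping 20-mer GUCY2C peptides covering residues 1-440, extracellular into transmembrane domain, coated at 20 µg/ml as target antigen and probed with antibodies or GUCY2C-CD3 bispecifics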
# [1] = molecular target: T1, GUCY2C_ECD Peptide 27
# Experimental: (§1) Arrays were reconstituted with acetonitrile to 100 μg/ml and were then further diluted to 20 μg/ml with sodium carbonate/bicarbonate buffer. Purified antibodies or GUCY2c-CD3 bispecifics were then tested by Delfia ELISA for binding to the different peptides using Delfia ELISA methods previously discussed, with diluted peptides used as the target antigen.
# [2] = molecular target: T2, GUCY2C_ECD Peptide 80
# Experimental: as §1
# [3] = molecular target: T3, GUCY2C_ECD Peptide 3
# Experimental: as §1
# [4] = molecular target: T4, GUCY2C_ECD Peptide 74
# Experimental: as §1
# [5] = molecular target: T5, GUCY2C_ECD Peptide 73
# Experimental: as §1
# [6] = molecular target: T6, GUCY2C_ECD Peptide 32
# Experimental: as §1
# [7] = molecular target: T7, GUCY2C_ECD Peptide 44
# Experimental: as §1
# [8] = molecular target: T8, GUCY2C_ECD Peptide 43
# Experimental: as §1
# [9] = molecular target: T9, GUCY2C_ECD Peptide 1
# Experimental: as §1
# [10] = molecular target: T10, GUCY2C_ECD Peptide 15
# Experimental: as §1
# [11] = molecular target: T11, GUCY2C_ECD Peptide 52
# Experimental: as §1
# [12] = molecular target: T12, GUCY2C_ECD Peptide 12
# Experimental: as §1
# [13] = molecular target: T13, GUCY2C_ECD Peptide 39
# Experimental: as §1
# [14] = molecular target: T14, GUCY2C_ECD Peptide 49
# Experimental: as §1
# [15] = molecular target: T15, GUCY2C_ECD Peptide 7
# Experimental: as §1
# [16] = molecular target: T16, GUCY2C_ECD Peptide 55
# Experimental: as §1
# [17] = molecular target: T17, GUCY2C_ECD Peptide 9
# Experimental: as §1
# [18] = molecular target: T18, GUCY2C_ECD Peptide 14
# Experimental: as §1
# [19] = molecular target: T19, GUCY2C_ECD Peptide 41
# Experimental: as §1
# [20] = molecular target: T20, GUCY2C_ECD Peptide 78
# Experimental: as §1
# [21] = molecular target: T21, GUCY2C_ECD Peptide 38
# Experimental: as §1
# [22] = molecular target: T22, GUCY2C_ECD Peptide 66
# Experimental: as §1
# [23] = molecular target: T23, GUCY2C_ECD Peptide 83
# Experimental: as §1
# [24] = molecular target: T24, GUCY2C_ECD Peptide 69
# Experimental: as §1
# [25] = molecular target: T25, GUCY2C_ECD Peptide 11
# Experimental: as §1
# [26] = molecular target: T26, GUCY2C_ECD Peptide 13
# Experimental: as §1
# [27] = molecular target: T27, GUCY2C_ECD Peptide 61
# Experimental: as §1
# [28] = molecular target: T28, GUCY2C_ECD Peptide 19
# Experimental: as §1
# [29] = molecular target: T29, GUCY2C_ECD Peptide 24
# Experimental: as §1
# [30] = molecular target: T30, GUCY2C_ECD Peptide 70
# Experimental: as §1
# [31] = molecular target: T31, GUCY2C_ECD Peptide 30
# Experimental: as §1
# [32] = molecular target: T32, GUCY2C_ECD Peptide 85
# Experimental: as §1
# [33] = molecular target: T33, GUCY2C_ECD Peptide 53
# Experimental: as §1
# [34] = molecular target: T34, GUCY2C_ECD Peptide 47
# Experimental: as §1
# [35] = molecular target: T35, GUCY2C_ECD Peptide 20
# Experimental: as §1
# [36] = molecular target: T36, GUCY2C_ECD Peptide 58
# Experimental: as §1
binder,measurement,setting,value
"GUCY2C-1608 (bispecific antibody, also called GUCY2c CD3 bispecific) chain 1: DIQLTQSPSSLSASVGDRVTITCRASESVDYYGSSLLQWYQQKPGKAPKLLIYAASKLASGVPSRFSGSGSGTDFTLTISSLQPEDFATYYCQQTRKAYTFGQGTKLEIKGGGSGGGGEVQLVESGGGLVQPGGSLRLSCAASGFTFSDYYMTWVRQAPGKGLEWVAFIRNQARGYTSDHNPSVKGRFTISRDNAKNSLYLQMNSLRAEDTAVYYCARDRPSYYVLDYWGQGTTVTVSSGCPPCPAPEAAGAPSVFLFPPKPKDTLMISRTPEVTCVVVDVSHEDPEVKFNWYVDGVEVHNAKTKPREEQYNSTYRVVSVLTVLHQDWLNGKEYKCKVSNKALPAPIEKTISKAKGQPREPQVCTLPPSREEMTKNQVSLWCLVKGFYPSDIAVEWESNGQPENNYKTTPPVLDSDGSFFLYSKLTVDKSRWQQGNVFSCSVMHEALHNHYTQKSLSLSPG chain 2: DIQMTQSPSSLSASVGDRVTITCTSSQSLFNVRSQKNYLAWYQQKPGKAPKLLIYWASTRESGVPSRFSGSGSGTDFTLTISSLQPEDFATYYCKQSYDLFTFGGGTKVEIKGGGGSGGGGEVQLVESGGGLVQPGGSLRLSCAASGFTFSSYWMHWVRQAPGKGLEWIGEIKPSNELTNVHEKFKDRFTISVDKAKNSAYLQMNSLRAEDTAVYYCTRTITTTEGYWFFDVWGQGTLVTVSSGCPPCPAPEAAGAPSVFLFPPKPKDTLMISRTPEVTCVVVDVSHEDPEVKFNWYVDGVEVHNAKTKPREEQYNSTYRVVSVLTVLHQDWLNGKEYKCKVSNKALPAPIEKTISKAKGQPREPQVYTLPPCREEMTKNQVSLSCAVKGFYPSDIAVEWESNGQPENNYKTTPPVLDSDGSFFLVSKLTVDKSRWQQGNVFSCSVMHEALHNHYTQKSLSLSPG",DELFIA TRF,[1],105
same,DELFIA TRF,[2],1470
same,DELFIA TRF,[3],97.8
same,DELFIA TRF,[4],100
same,DELFIA TRF,[5],116
same,DELFIA TRF,[6],83.2
same,DELFIA TRF,[7],90.5
same,DELFIA TRF,[8],104
same,DELFIA TRF,[9],166
same,DELFIA TRF,[10],88.8
same,DELFIA TRF,[11],104
same,DELFIA TRF,[12],259
same,DELFIA TRF,[13],86.5
same,DELFIA TRF,[14],129
same,DELFIA TRF,[15],136
same,DELFIA TRF,[16],100
same,DELFIA TRF,[17],145
same,DELFIA TRF,[18],97
same,DELFIA TRF,[19],161
same,DELFIA TRF,[20],97.8
same,DELFIA TRF,[21],110
same,DELFIA TRF,[22],114
same,DELFIA TRF,[23],85.8
same,DELFIA TRF,[24],100
same,DELFIA TRF,[25],101
same,DELFIA TRF,[26],102
same,DELFIA TRF,[27],126
same,DELFIA TRF,[28],19200
same,DELFIA TRF,[29],119
same,DELFIA TRF,[30],91.8
same,DELFIA TRF,[31],125
same,DELFIA TRF,[32],163
same,DELFIA TRF,[33],87.8
same,DELFIA TRF,[34],104
same,DELFIA TRF,[35],3210
same,DELFIA TRF,[36],98.5

# — patent US20230340151A1 (Pfizer, published 2023)
